Assay results: US20220088190A1 (University of Pennsylvania, published 2022)

Columns and labels:
HLA-A*11:01 = molecular target: T1, HLA-A*11:01 (human); assay: peptide-MHC binding, competitive fluorescence polarization assay
T1 construct: the construct is not described

[1] = molecular target: T2, HLA-A*11:01 expressed on monoallelic K562 RAS TMG cells (human); assay: HLA class I immunoprecipitation, peptide elution and tandem MS/MS from monoallelic K562 RAS TMG cells (FIG. 8E)
T2 construct: also called K562-A*11:01

[2] = molecular target: T3, HLA-B*07:02 expressed on monoallelic K562 RAS TMG cells (human); assay: HLA class I immunoprecipitation, peptide elution and tandem MS/MS from monoallelic K562 RAS TMG cells (FIG. 8J)
T3 construct: also called K562-B*07:02

HLA-B*07:02 = molecular target: T4, HLA-B*07:02 (human); assay: peptide-MHC binding, competitive fluorescence polarization assay
T4 construct: the construct is not described

HLA-A*03:01 = molecular target: T5, HLA-A*03:01 (human); assay: as above
T5 construct: the construct is not described

[3] = molecular target: T2, HLA-A*11:01 expressed on monoallelic …; assay: HLA class I immunoprecipitation, peptide elution and tandem MS/MS from monoallelic K562 RAS TMG cells (FIG. 8I)
[4] = molecular target: T6, HLA-A*03:01 expressed on monoallelic K562 RAS TMG cells (human); assay: HLA class I immunoprecipitation, peptide elution and tandem MS/MS from monoallelic K562 RAS TMG cells (FIG. 8D)
T6 construct: also called K562-A*03:01

[5] = molecular target: T6, HLA-A*03:01 expressed on monoallelic …; assay: HLA class I immunoprecipitation, peptide elution and tandem MS/MS from monoallelic K562 RAS TMG cells (FIG. 8A)
[6] = molecular target: T2, HLA-A*11:01 expressed on monoallelic …; assay: HLA class I immunoprecipitation, peptide elution and tandem MS/MS from monoallelic K562 RAS TMG cells (FIG. 8F)
[7] = molecular target: T2, HLA-A*11:01 expressed on monoallelic …; assay: HLA class I immunoprecipitation, peptide elution and tandem MS/MS from monoallelic K562 RAS TMG cells (FIG. 8G)
[8] = molecular target: T6, HLA-A*03:01 expressed on monoallelic …; assay: HLA class I immunoprecipitation, peptide elution and tandem MS/MS from monoallelic K562 RAS TMG cells (FIG. 8C)

B1: mRAS peptide VV_C (RAS G12C), VVGACGVGK (peptide)
peptide: VVGACGVGK
notes: 9-mer mutant RAS short peptide; also called C-9
Question: Does B1 bind (HLA-A*11:01)?
Answer: binds

B2: mRAS peptide VV_D (RAS G12D), VVGADGVGK (peptide)
peptide: VVGADGVGK
notes: 9-mer mutant RAS short peptide; also called D-9
Question: Does B2 bind (HLA-A*11:01)?
Answer: binds

Question: Does B2 bind [1]?
Answer: binds

B3: mRAS peptide GA_R (RAS G12R), GARGVGKSAL (peptide)
peptide: GARGVGKSAL
notes: 10-mer mutant RAS short peptide; also called R-10 (B*07:02 panel)
Question: Does B3 bind [2]?
Answer: binds

Question: Does B3 bind (HLA-B*07:02)?
Answer: binds

B4: mRAS peptide VVV_R (RAS G12R), VVVGARGVGK (peptide)
peptide: VVVGARGVGK
notes: 10-mer mutant RAS short peptide; also called R-10
Question: Does B4 bind (HLA-A*11:01)?
Answer: binds

Question: Does B4 bind (HLA-A*03:01)?
Answer: binds

B5: mRAS peptide VV_R (RAS G12R), VVGARGVGK (peptide)
peptide: VVGARGVGK
notes: 9-mer mutant RAS short peptide; also called R-9
Question: Does B5 bind [3]?
Answer: binds

Question: Does B5 bind [4]?
Answer: binds

Question: Does B5 bind (HLA-A*11:01)?
Answer: binds

B6: mRAS peptide VVV_D (RAS G12D), VVVGADGVGK (peptide)
peptide: VVVGADGVGK
notes: 10-mer mutant RAS short peptide; also called D-10
Question: What does the source list for B6?
Answer: binding result [5]: binds; binding result [6]: binds; binding result (HLA-A*11:01): binds

B7: mRAS peptide VVV_V (RAS G12V), VVVGAVGVGK (peptide)
peptide: VVVGAVGVGK
notes: 10-mer mutant RAS short peptide; also called V-10
Question: Which results are given for B7?
Answer: binding result (HLA-A*11:01): binds; binding result (HLA-A*03:01): binds; binding result [7]: binds; binding result [8]: binds
